These results are taken from patent US20230383288, “SYSTEMS, METHODS, AND COMPOSITIONS FOR RNA-GUIDED RNA-TARGETING CRISPR EFFECTORS” (Massachusetts Institute of Technology, published 2023).

This series addresses T1, DiCas7-11 D429A/D654A (Desulfonema ishimotonii, D429A,D654A).
T1 chain: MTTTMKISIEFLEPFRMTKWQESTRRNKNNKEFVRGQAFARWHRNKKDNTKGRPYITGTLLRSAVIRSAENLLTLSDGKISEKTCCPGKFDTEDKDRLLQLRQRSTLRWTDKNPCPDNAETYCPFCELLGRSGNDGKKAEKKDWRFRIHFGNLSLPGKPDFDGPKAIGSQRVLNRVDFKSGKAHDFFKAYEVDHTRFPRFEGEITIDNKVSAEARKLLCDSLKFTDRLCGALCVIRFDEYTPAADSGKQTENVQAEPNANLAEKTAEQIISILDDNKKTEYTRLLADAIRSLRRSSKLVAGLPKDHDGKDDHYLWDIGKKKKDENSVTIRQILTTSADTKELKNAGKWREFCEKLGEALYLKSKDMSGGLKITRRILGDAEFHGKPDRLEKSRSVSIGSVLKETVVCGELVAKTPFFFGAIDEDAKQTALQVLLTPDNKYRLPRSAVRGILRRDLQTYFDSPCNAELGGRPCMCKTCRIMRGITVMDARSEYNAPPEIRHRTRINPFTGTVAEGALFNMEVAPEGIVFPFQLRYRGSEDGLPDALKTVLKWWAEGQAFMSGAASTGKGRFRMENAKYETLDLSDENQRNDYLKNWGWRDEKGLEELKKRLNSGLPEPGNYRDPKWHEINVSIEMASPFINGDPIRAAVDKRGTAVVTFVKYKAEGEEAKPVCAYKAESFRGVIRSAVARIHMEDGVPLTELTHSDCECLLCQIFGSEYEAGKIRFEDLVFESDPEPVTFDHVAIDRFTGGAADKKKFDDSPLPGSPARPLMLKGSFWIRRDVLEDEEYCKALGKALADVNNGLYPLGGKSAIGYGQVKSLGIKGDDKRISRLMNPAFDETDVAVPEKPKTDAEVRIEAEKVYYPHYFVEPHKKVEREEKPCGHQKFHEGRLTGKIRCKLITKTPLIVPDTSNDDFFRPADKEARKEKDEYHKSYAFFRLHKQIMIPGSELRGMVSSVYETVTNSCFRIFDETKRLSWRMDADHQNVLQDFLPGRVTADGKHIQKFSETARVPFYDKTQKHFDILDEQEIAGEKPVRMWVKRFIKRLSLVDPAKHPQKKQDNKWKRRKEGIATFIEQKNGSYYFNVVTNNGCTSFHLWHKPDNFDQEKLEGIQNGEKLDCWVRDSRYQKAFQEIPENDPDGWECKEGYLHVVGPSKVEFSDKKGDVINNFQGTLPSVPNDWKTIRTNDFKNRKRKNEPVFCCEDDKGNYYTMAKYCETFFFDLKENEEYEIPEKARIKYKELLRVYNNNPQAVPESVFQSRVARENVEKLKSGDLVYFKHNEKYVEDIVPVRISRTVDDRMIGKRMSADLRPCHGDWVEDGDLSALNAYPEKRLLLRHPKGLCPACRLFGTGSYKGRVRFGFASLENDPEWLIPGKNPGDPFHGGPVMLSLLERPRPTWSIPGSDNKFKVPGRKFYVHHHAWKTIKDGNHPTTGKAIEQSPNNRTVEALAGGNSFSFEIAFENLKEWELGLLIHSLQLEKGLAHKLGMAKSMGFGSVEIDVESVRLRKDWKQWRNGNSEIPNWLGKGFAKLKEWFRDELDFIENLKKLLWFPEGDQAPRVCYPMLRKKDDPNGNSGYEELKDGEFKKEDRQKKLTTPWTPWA
The series can be described thus: structure; cryo-EM 2.45 A, PDB 7WAH; 20 mM Hepes pH 7.0, 150 mM NaCl, 2 mM MgCl2; target pairs with crRNA 1-23 except flipped 4 and 10. The conditions noted are these: tags: N-terminal MBP, C-terminal His6. The method, then:
A Cas7-11-crRNA-target RNA complex was reconstituted by mixing the purified MBP-Cas7-11 protein, the 39-nucleotide crRNA, and the 25-nucleotide target RNA, at a molar ratio of 1:1.2:1.5. The complex was purified by size-exclusion chromatography on a Superose6 Increase 10/300 column (GE Healthcare), equilibrated with the buffer containing 20 mM Hepes-NaOH, pH 7.0, 150 mM NaCl, 2 mM MgCl₂, and 1 mM DTT. The peak fraction containing Cas7-11-:crRNA-target RNA complex was concentrated to 1.5 A260 units using an Amicon Ultra-4 filter (10 kDa molecular-weight cutoff; Millipore). The samples (3 μl) were then applied to freshly glow-discharged Au 300 mesh R1.2/1.3 grids (Quantifoil) in a Vitrobot Mark IV (FEI) at 4° C. with a waiting time of 10 sec and a blotting time of 4 sec under 100% humidity conditions. The grids were plunge-frozen into liquid ethane cooled at liquid nitrogen temperature.
A model was built using Nautilus and Buccaneer in CCP-EM package and manually built using COOT against the density map sharpened using DeepEMhancer. […] The curve representing model vs. full map was calculated using phenix.mtriage, based on the final model and the full, filtered, and sharpened map. The cryo-EM density maps were calculated with UCSF ChimeraX, and molecular graphics figures were prepared with CueMol (http://www.cuemol.org).

B1: crRNA for structural analysis ; target RNA for structural analysis (ssRNA ; ssRNA)
RNA 1: GGUGAUGUCACGGAACCUUUGUUGUCUUCGACAUGGGUAAU
RNA 2: GGAUUACCCAUGUCGAAGACAACAAAG
As for B1, the binding result is “binds”.
